# Source: article PMC9426481, “Structure and Function of BcpE2, the Most Promiscuous GH3-Family Glucose Scavenging Beta-Glucosidase” (mBio, 2022)
# Experiments:
# BglC (His6-BglC) = target: T1, BglC (His6-BglC) (Streptomyces scabiei, UniProt C9Z448); assay: glucose release; substrate inhibition fit; type: biochemical; conditions: Ki of substrate inhibition
# T1 construct: gene SCAB_57721; N-terminal His6 tag kept; plasmid pSAJ022; host E. coli BL21(DE3) Rosetta
# BcpE2 = target: T2, BcpE2 (Streptomyces scabiei, UniProt C9ZDY4); assay: TLC hydrolysis assay with purified enzyme (complete hydrolysis); type: biochemical
# T2 construct: gene SCAB_64101; BcpE2-His6
# purified protein [1] = substrate: OC/C=C/c1ccc(O[C@@H]2O[C@H](CO)[C@@H](O)[C@H](O)[C@H]2O)cc1; assay: purified protein; type: biochemical, Streptomyces scabiei
# purified protein [2] = substrate: COc1cc2ccc(=O)oc2cc1O[C@@H]1O[C@H](CO)[C@@H](O)[C@H](O)[C@H]1O; assay: purified protein; type: biochemical, Streptomyces scabiei
# [3] = substrate: COc1cc(/C=C/CO)ccc1O[C@@H]1O[C@H](CO)[C@@H](O)[C@H](O)[C@H]1O; assay: Hydrolysis kinetics (glucose release, Km) and TLC with purified enzyme; type: biochemical, Streptomyces scabiei
# [4] = substrate: COc1cc(/C=C/CO)cc(OC)c1O[C@@H]1O[C@H](CO)[C@@H](O)[C@H](O)[C@H]1O; assay: as above; type: biochemical, Streptomyces scabiei
# [5] = substrate: OC[C@H]1O[C@@H](Oc2ccc(O)cc2)[C@H](O)[C@@H](O)[C@@H]1O; assay: as above; type: biochemical, Streptomyces scabiei
# [6] = substrate: OCc1ccccc1O[C@@H]1O[C@H](CO)[C@@H](O)[C@H](O)[C@H]1O; assay: as above; type: biochemical, Streptomyces scabiei
# [7] = substrate: OC[C@H]1O[C@@H](O[C@H]2[C@H](O)[C@@H](CO)OC(O)[C@@H]2O)[C@H](O)[C@@H](O)[C@@H]1O; assay: as above; type: biochemical, Streptomyces scabiei
# T1 sequence (C9Z448 entry or part of it): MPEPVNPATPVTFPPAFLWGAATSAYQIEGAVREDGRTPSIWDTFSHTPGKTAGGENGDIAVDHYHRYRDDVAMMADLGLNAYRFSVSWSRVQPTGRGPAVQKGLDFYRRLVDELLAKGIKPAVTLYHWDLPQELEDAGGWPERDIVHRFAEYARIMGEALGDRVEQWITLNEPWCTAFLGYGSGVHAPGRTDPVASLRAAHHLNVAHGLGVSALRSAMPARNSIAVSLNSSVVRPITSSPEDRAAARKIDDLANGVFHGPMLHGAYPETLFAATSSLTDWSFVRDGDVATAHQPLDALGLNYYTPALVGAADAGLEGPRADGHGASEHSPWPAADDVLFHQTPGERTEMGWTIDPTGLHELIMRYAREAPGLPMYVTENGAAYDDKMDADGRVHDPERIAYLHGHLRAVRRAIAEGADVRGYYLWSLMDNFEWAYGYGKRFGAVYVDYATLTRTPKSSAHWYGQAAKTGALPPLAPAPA
molecule,measurement,setting,value
COc1cc2ccc(=O)oc2cc1O[C@@H]1O[C@H](CO)[C@@H](O)[C@H](O)[C@H]1O [Scopolin],Ki,BglC (His6-BglC),"the Ki value for BcpE2 appeared to be lower, indicating a stronger inhibition compared to BglC"
OC[C@H]1O[C@@H](Oc2cc3c(O[C@@H]4O[C@H](CO)[C@@H](O)[C@H](O)[C@H]4O)cc(O)cc3[o+]c2-c2ccc(O)c(O)c2)[C@H](O)[C@@H](O)[C@@H]1O [Cyanin],TLC hydrolysis assay with purified enzyme (complete hydrolysis),BcpE2,"Cyanin (Cyanidin-3,5-di-O-glucoside)|Antho-cyanosides|+|−|NT|NT|NT|NT"
CC(C)(C#N)O[C@@H]1O[C@H](CO)[C@@H](O)[C@H](O)[C@H]1O [Linamarin],TLC hydrolysis assay with purified enzyme (complete hydrolysis),BcpE2,Linamarin|Cyanogenic glycosides|+|−|NT|NT|NT|NT
"BcpE2 (Streptomyces scabiei 87.22) (protein, BcpE2-His6) MAATPGTRTTPADEAREAAVEKALAALDLDAKARLLSGQDMWTLPALPEIGLASLVMSDGPIGVRGVRWTADDPSVALPSPTALAATWDPGLARRAGVLLAQEARRKGVHVLLAPTVNLHRSPLGGRHFEAYSEDPYLTGEIGSGYVTGVQAGGVGTTVKHFVANDAETDRFTVNNLVSARALRELYLAPFEAIVANAHPWGIMTAYNQVNGSTMTEHRYLVNEVLRGEWGFDGFNVSDWLAARSTTGALTGGLDVAMPGPATVYGEPLAAAVRAGEVTESLLDEAVRRVLRLAARVGILEGAAPAVTELPAPVDGEALAREIARRSFVLVRNEVRDGRAALPLEQGATVALIGAAARDARVLGGGSATVFPARVVSPLDGLTAALPEGAPTYALGADPNEELAVADTGFTLRAVCRDASGTVIGTRSAPNGHIQWMGSDLPDGVTHATLHSVELTGTFTPRETGTHTFGVKGLGAYTLTVDGTTHFDGVRTTDTDDPFVSFFGAPVPLAEVELTEGTPLEVSLTHVVELAADAPITMLAFSLCHQEPQRDPDELIAEAVEAARAADTAVVVVATTERVESEGFDRKDLRLPGRQDDLVRAVAAANPATVVVVNAGSPVELPWREDVAAVLLTWFPGQEGGAALAEVLTGAHEPGGRLPTTWGSLTGAPVTQVTPTAGELVYDEGVFIGYRAWDKEDRTPTYPFGHGLGYTDWTYESLDVTGTTATVRVRNTGTREGRETVQLYLAPTTADENRPTRWLAGFATVEAAPGETAEAVVRLPRRAFEIWDETTGAWVYVTGSYEVAAGRSIADRRTRVTIEAP",Km,purified protein [1],236 µM
same,kcat,purified protein [1],77.2 s⁻¹
same,kcat/Km,purified protein [1],326000 M⁻¹ s⁻¹
same,Km,purified protein [2],356 µM
same,kcat,purified protein [2],192 s⁻¹
same,kcat/Km,purified protein [2],540000 M⁻¹ s⁻¹
same,Km,[3],151 ± 43 µM
same,kcat,[3],83.3 ± 5.9 s⁻¹
same,kcat/Km,[3],551000 M⁻¹ s⁻¹
same,Km,[4],608 ± 166 µM
same,kcat,[4],26.4 ± 3.07 s⁻¹
same,kcat/Km,[4],43500 M⁻¹ s⁻¹
same,Km,[5],367 ± 80 µM
same,kcat,[5],43.2 ± 2.5 s⁻¹
same,kcat/Km,[5],117000 M⁻¹ s⁻¹
same,Km,[6],142 ± 30 µM
same,kcat,[6],53.2 ± 2.37 s⁻¹
same,kcat/Km,[6],376000 M⁻¹ s⁻¹
same,Km,[7],6557 ± 1410 µM
same,kcat,[7],8.74 ± 1.02 s⁻¹
same,kcat/Km,[7],1330 M⁻¹ s⁻¹
